The text below walks through data of patent US20140120555A1 (PIERRE FABRE MEDICAMENT, published 2014).

Experiment [1] deals with T1, Recombinant human FcγRIIIA variant V [CD16a], Gln17-Gln208 with C-terminal 6-His tag (human, UniProt P08637 17-208).
T1 construct: range 17-208; 'variant V' is given without a position, so no substitution is written; also called h-FcγRIIIA
In words: SPR (Biacore X), steady-state analysis, response at end of association versus h-FcγRIIIA concentration. (In SPR one partner is held on a chip, and binding of the other changes the refractive index at the surface.)

In experiment [2] the target is T2, Recombinant human FcγRI [CD64], Gln16-Pro288 with C-terminal 6-His tag (human, UniProt P12314 16-288).
T2 construct: range 16-288; Soluble form bought from R&D Systems; also called h-FcγRI
In words: SPR (Biacore X): h-FcγRI injected over c515H7 Mab immobilized on a CM4 sensorchip; Langmuir model. On the procedure:
(§1) 2017 RU of c515H7 Mab were immobilized using the amine coupling kit chemistry on the second flowcell (FC2) of a CM4 sensorchip. The first flowcell (FC1) activated by NHS and EDC mixture and des-activated by ethanolamine served as the reference surface to check and subtract the non specific interaction between the analyte (Fc gamma receptors) and the sensorchip matrix.
(§2) The kinetic experiments were carried out at 25° Celsius at a flow rate of 30 μl/min. The HBS-EP buffer was used either as the running buffer or for the preparation of analyte solutions. The analyte solutions were injected during 90 seconds (association phase) with a 90 seconds delay (dissociation phase). An injection of running buffer as analyte was used as a double reference. All the sensorgrams were corrected by this double reference sensorgram.
(§3) After each injection of the analyte, the sensorchip was regenerated by injection of 20 mM NaOH, 75 mM NaCl solution.

The target in experiment [3] is T1, Recombinant human FcγRIIIA variant V …. In words: SPR (Biacore X), Mab on CM4 chip, h-FcγRIIIA as analyte, heterogeneous ligand model, major component.
The target in experiment [4] is T3, Recombinant mouse FcγRI [CD64], Gln25-Pro297 with C-terminal 6-His tag (mouse, UniProt P26151 25-297).
T3 construct: range 25-297; Soluble form bought from R&D Systems; also called m-FcγRI
T3 sequence: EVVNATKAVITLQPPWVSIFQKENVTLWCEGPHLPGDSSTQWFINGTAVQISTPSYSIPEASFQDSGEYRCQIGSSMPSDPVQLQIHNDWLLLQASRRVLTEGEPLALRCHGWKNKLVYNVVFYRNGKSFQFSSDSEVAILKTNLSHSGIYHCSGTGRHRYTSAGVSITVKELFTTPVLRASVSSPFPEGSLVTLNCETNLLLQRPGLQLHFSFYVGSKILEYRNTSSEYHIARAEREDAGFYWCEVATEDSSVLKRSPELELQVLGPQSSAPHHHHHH
In words: SPR (Biacore X), Mab on CM4 chip, m-FcγRI as analyte, heterogeneous ligand model, major component; major component (81%), higher value. On the procedure:
as §1, §2
According to this model, the c515H7 Mab Fc domain may be regarded as a mixture of two components.

For experiment [5], the target named is T1, Recombinant human FcγRIIIA variant V …. In words: SPR (Biacore X), Mab on CM4 chip, h-FcγRIIIA as analyte, heterogeneous ligand model, minor component.
In experiment [6] the target is T3, Recombinant mouse FcγRI [CD64], …. Briefly: SPR (Biacore X), steady-state analysis, response at end of association versus m-FcγRI concentration.
The target in experiment [7] is T1, Recombinant human FcγRIIIA variant V …. In words: SPR (Biacore X): h-FcγRIIIA injected over c515H7 Mab immobilized on a CM4 sensorchip; Langmuir model. On the procedure: as §1, §2, §3
In experiment [8] the target is T2, Recombinant human FcγRI [CD64], …. In words: SPR (Biacore X), Mab amine-coupled on CM4 chip, h-FcγRI as analyte, Langmuïr model.
The target of experiment [9] is T3, Recombinant mouse FcγRI [CD64], …. Briefly: SPR (Biacore X), Mab on CM4 chip, m-FcγRI as analyte, heterogeneous ligand model, minor component. On the procedure: (§4) 1964 RU of hz515H7VH1D76NVL2 Mab were immobilized using the amine coupling kit chemistry on the second flowcell (FC2) of a CM4 sensorchip. The first flowcell (FC1) activated by NHS and EDC mixture and des-activated by ethanolamine served as the reference surface to check and subtract the non specific interaction between the analyte (Fc gamma receptors) and the sensorchip matrix.
as §2
(§5) After each injection of the analyte, the sensorchip was regenerated by injection of either 20 mM NaOH solution after h-FcγRI and m-FcγRIII or 10 mM NaOH after h-FcγRIIIA and m-FcγRI.

Experiment [10] has as its target T4, Recombinant mouse FcγRIII [CD16], Ala31-Thr215 with C-terminal 10-His tag (mouse, UniProt P08508 31-215).
T4 construct: Soluble form bought from R&D Systems; also called m-FcγRIII
T4 sequence: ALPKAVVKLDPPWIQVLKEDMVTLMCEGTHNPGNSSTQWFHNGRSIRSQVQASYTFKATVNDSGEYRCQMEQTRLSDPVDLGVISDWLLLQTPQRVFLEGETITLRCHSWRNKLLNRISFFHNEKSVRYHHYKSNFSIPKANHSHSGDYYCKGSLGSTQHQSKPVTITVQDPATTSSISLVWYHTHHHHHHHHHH
Briefly: SPR (Biacore X), Mab on CM4 chip, m-FcγRIII as analyte, Langmuïr model; higher of the two Langmuïr-fit values. On the procedure:
as §4, §2
Using the Langmuïr model the constant of dissociation was around 17 and 18 nM.

For experiment [11], the target named is T3, Recombinant mouse FcγRI [CD64], …. Briefly: SPR (Biacore X): m-FcγRI injected over hz515H7VH1D76NVL2 Mab immobilized on a CM4 sensorchip; Langmuir model. On the procedure:
as §4, §2, §5

T1 sequence (P08637 other isoform, or with tags, fused parts or gaps mutant limits assumed, form in doubt): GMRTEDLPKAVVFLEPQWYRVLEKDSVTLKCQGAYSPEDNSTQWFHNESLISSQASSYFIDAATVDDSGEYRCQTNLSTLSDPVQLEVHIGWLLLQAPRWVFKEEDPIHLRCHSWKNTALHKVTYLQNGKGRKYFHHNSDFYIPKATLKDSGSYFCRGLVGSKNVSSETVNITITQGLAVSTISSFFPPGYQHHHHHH
T2 sequence (P12314 other isoform, or with tags, fused parts or gaps limits assumed): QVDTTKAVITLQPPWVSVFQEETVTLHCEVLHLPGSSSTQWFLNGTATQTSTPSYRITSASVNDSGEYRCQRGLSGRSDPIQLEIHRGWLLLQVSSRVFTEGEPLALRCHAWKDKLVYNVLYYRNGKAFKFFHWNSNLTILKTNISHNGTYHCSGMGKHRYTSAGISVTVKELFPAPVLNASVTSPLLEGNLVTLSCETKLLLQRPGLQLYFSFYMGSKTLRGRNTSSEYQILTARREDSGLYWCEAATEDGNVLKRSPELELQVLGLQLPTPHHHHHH

B1: chimeric antibody c515H7 (antibody, human IgG1, kappa)
heavy: not shown
light: DIVMSQSPSSLAVSAGEKVTMSCKSSQSLFNSRTRKNYLAWYQQKPGQSPKLLIYWASARDSGVPARFTGSGSETYFTLTISRVQAEDLAVYYCMQSFNLRTFGGGTKLEIKRTVAAPSVFIFPPSDEQLKSGTASVVCLLNNFYPREAKVQWKVDNALQSGNSQESVTEQDSKDSTYSLSSTLTLSKADYEKHKVYACEVTHQGLSSPVTKSFNRGEC
notes: Human IgG1/kappa constant domains; also called c515H7 Mab; chimeric 515H7
Broadly, the Kd is the concentration at which binding is half-saturated. As usually defined, the koff is the rate constant with which the complex falls apart. A word on the kon: it is the rate constant with which the complex forms. For B1, the dissociation constant (Kd) in experiment [1] is 160 nM; in [2] it was 1.22 nM; in [3], 380 to 450 nM; in [4] it was around 450 nM; in experiment [5] it was 32 to 37 nM; in experiment [6], 107 nM. Besides, the equilibrium dissociation constant (Kd) in [7] is 63.8 nM; in experiment [8], 1.2 nM. The koff in experiment [2] was 0.000599 s⁻¹; in experiment [7], 0.0263 s⁻¹. Besides, the results for the kon in [2] and in experiment [7] were 493000 M⁻¹ s⁻¹ and 412000 M⁻¹ s⁻¹, respectively.

B2: humanized antibody Hz515H7 VH1 D76N VL2 (antibody, human IgG1, kappa)
heavy: not shown
light: DIVMTQSPSSLAVSLGERATMSCKSSQSLFNSRTRKNYLAWYQQKPGQSPKLLIYWASARDSGVPARFTGSGSETYFTLTISRVQAEDLAVYYCMQSFNLRTFGQGTKVEIKRTVAAPSVFIFPPSDEQLKSGTASVVCLLNNFYPREAKVQWKVDNALQSGNSQESVTEQDSKDSTYSLSSTLTLSKADYEKHKVYACEVTHQGLSSPVTKSFNRGEC
notes: IgG1/kappa; also called hz515H7VL2; hz515H7-1
Regarding B2, the Kd in experiment [9] is around 90 nM; in [1] it was 176 nM; in experiment [3], 300 to 350 nM; in experiment [10], around 18 nM; in experiment [11], 77 nM; in experiment [5] it was 27 to 32 nM. Also, the Kd was 95 nM in experiment [6] and 0.9 nM in experiment [8]. Further, the koff in [11] is 0.0648 s⁻¹. Also, in experiment [11], the kon came to 842000 M⁻¹ s⁻¹.
